# Biological target: GST-tagged A. thaliana Rpn10 (AtRpn10) vWA domain (Arabidopsis thaliana) (UniProt P55034)
# Test: SPR
# GST-tagged A. thaliana Rpn10 (AtRpn10) vWA domain (Arabidopsis thaliana), sequence (P55034 2-193): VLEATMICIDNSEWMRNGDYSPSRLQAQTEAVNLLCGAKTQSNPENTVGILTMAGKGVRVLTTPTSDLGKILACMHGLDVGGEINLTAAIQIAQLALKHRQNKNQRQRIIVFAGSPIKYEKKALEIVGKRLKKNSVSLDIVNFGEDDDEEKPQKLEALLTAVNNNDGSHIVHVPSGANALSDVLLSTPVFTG
substance,measurement,value
"V-shape-GSGS-C-ter peptide (fused V-shape and C-ter peptide of SAP05, linked by the GSGS linker)",Kd,34.3 µM

# — article doi:10.1101/2023.08.24.554544
